The data set is described as follows: total protein half-life in vivo (active degradation + dilution); higher = more stable protein.
The mark [1] stands for this setting: E. coli NCM3722 delta-clpP delta-lon delta-hslV, growth: N-lim chemostat, doubling time 6 h.
Setting [2] is: E. coli NCM3722 delta-clpP, growth: N-lim chemostat, doubling time 6 h.
The mark [3] stands for this setting: E. coli NCM3722 delta-hslV, growth: N-lim chemostat, doubling time 6 h.
Setting [4] is: E. coli NCM3722 delta-lon, growth: N-lim chemostat, doubling time 6 h.
Where [5] appears, read: E. coli NCM3722 delta-smpB, growth: N-lim chemostat, doubling time 6 h.
[6] abbreviates: wild type E. coli NCM3722, growth: C-lim chemostat, doubling time 3 h.
The mark [7] stands for this setting: wild type E. coli NCM3722, growth: C-lim chemostat, doubling time 6 h.
The mark [8] stands for this setting: wild type E. coli NCM3722, growth: C-lim chemostat, doubling time 12 h.
Where [9] appears, read: wild type E. coli NCM3722, growth: N-lim chemostat, doubling time 6 h.
The mark [10] stands for this setting: wild type E. coli NCM3722, growth: N-lim chemostat, doubling time 12 h.
Setting [11] is: wild type E. coli NCM3722, growth: P-lim chemostat, doubling time 6 h.
Setting [12] is: wild type E. coli NCM3722, growth: P-lim chemostat, doubling time 12 h.

± gives the standard deviation of the averaged measurements.

Results on seven sequences are retold here after the supplement of paper PMC11246515.

As for “MGLMNAFDSQTEDSSPAIGRNLRSRPLARKKLSEMVEEELEQMIRRREFGEGEQLPSERELMAFFNVGRPSVREALAALKRKGLVQINNGERARVSRPSADTIIGELSGMAKDFLSHPGGIAHFEQLRLFFESSLVRYAAEHATDEQIDLLAKALEINSQSLDNNAAFIRSDVDFHRVLAEIPGNPIFMAIHVALLDWLIAARPTVTDQALHEHNNVSYQQHIAIVDAIRRHDPDEADRALQSHLNSVSATWHAFGQTTNKKK [P0A8W0]”, the “total protein half-life in vivo” value worked out at 5.49 ± 0.12 h under setting [1]; 5.05 ± 0.14 h under setting [2]; 3.63 ± 0.045 h under setting [3]; 4.53 ± 0.93 h under setting [4]; 3.48 ± 0.66 h under setting [5]; 2.383 ± 0.0064 h under setting [6]. Moreover, the “total protein half-life in vivo” value runs as follows: under setting [7], 4.17 ± 0.12 h; under setting [8], 6.39 ± 0.4 h; under setting [9], 3.95 ± 0.16 h; under setting [10], 5.27 ± 0.066 h; under setting [11], 3.59 ± 0.14 h; under setting [12], 6.29 ± 0.19 h.

In the case of “MGHKPLYRQIADRIREQIARGELKPGDALPTESALQTEFGVSRVTVRQALRQLVEQQILESIQGSGTYVKEERVNYDIFQLTSFDEKLSDRHVDTHSEVLIFEVIPADDFLQQQLQITPQDRVWHVKRVRYRKQKPMALEETWMPLALFPDLTWQVMENSKYHFIEEVKKMVIDRSEQEIIPLMPTEEMSRLLNISQTKPILEKVSRGYLVDGRVFEYSRNAFNTDDYKFTLIAQRKSSR”, the “total protein half-life in vivo” value runs as follows: under setting [1], 5.56 ± 0.42 h; under setting [2], 5.47 ± 0.059 h; under setting [3], 5.26 ± 0.32 h; under setting [4], 4.83 ± 0.42 h; under setting [5], 4.99 ± 0.07 h; under setting [6], 2.985 ± 0.0092 h. Also, the “total protein half-life in vivo” value by setting is: under setting [9], 5.354 ± 0.041 h; under setting [10], 9.53 ± 0.028 h; under setting [11], 5.8 ± 0.12 h; under setting [12], 12.1 ± 1.1 h.

Consider “MKQTVAAYIAKTLESAGVKRIWGVTGDSLNGLSDSLNRMGTIEWMSTRHEEVAAFAAGAEAQLSGELAVCAGSCGPGNLHLINGLFDCHRNHVPVLAIAAHIPSSEIGSGYFQETHPQELFRECSHYCELVSSPEQIPQVLAIAMRKAVLNRGVSVVVLPGDVALKPAPEGATMHWYHAPQPVVTPEEEELRKLAQLLRYSSNIALMCGSGCAGAHKELVEFAGKIKAPIVHALRGKEHVEYDNPYDVGMTGLIGFSSGFHTMMNADTLVLLGTQFPYRAFYPTDAKIIQIDINPASIGAHSKVDMALVGDIKSTLRALLPLVEEKADRKFLDKALEDYRDARKGLDDLAKPSEKAIHPQYLAQQISHFAADDAIFTCDVGTPTVWAARYLKMNGKRRLLGSFNHGSMANAMPQALGAQATEPERQVVAMCGDGGFSMLMGDFLSVVQMKLPVKIVVFNNSVLGFVAMEMKAGGYLTDGTELHDTNFARIAEACGITGIRVEKASEVDEALQRAFSIDGPVLVDVVVAKEELAIPPQIKLEQAKGFSLYMLRAIISGRGDEVIELAKTNWLR”, for which the “total protein half-life in vivo” value by setting is: under setting [1], 5.5 ± 0.51 h; under setting [2], 5.2 ± 0.97 h; under setting [3], 4.77 ± 0.08 h; under setting [4], 5.321 ± 0.051 h; under setting [5], 4.71 ± 0.4 h; under setting [6], 3.19 ± 0.15 h. The “total protein half-life in vivo” value reads like this: under setting [7], 5.59 ± 0.21 h; under setting [8], 11.2 ± 2.6 h; under setting [9], 4.7 ± 0.064 h; under setting [10], 7.734 ± 0.064 h; under setting [11], 5.614 ± 0.02 h; under setting [12], 11.6 ± 0.17 h.

For the sequence “MTLSSQHYLVITALGADRPGIVNTITRHVSSCGCNIEDSRLAMLGEEFTFIMLLSGSWNAITLIESTLPLKGAELDLLIVMKRTTARPRPPMPASVWVQVDVADSPHLIERFTALFDAHHMNIAELVSRTQPAENERAAQLHIQITAHSPASADAANIEQAFKALCTELNAQGSINVVNYSQHDEQDGVK [P0A9I3]”, the “total protein half-life in vivo” value is, setting by setting: under setting [1], 4.9 ± 0.79 h; under setting [2], 4.39 ± 0.19 h; under setting [3], 4.53 ± 0.06 h; under setting [4], 4.62 ± 0.24 h; under setting [5], 4.056 ± 0.037 h; under setting [6], 2.976 ± 0.012 h. The “total protein half-life in vivo” value by setting is: under setting [7], 5.48 ± 0.32 h; under setting [8], 9.43 ± 3.2 h; under setting [9], 4.42 ± 0.34 h; under setting [10], 7.51 ± 0.33 h; under setting [11], 5.71 ± 0.46 h; under setting [12], 12.1 ± 1.4 h.

For “MKTLGEFIVEKQHEFSHATGELTALLSAIKLGAKIIHRDINKAGLVDILGASGAENVQGEVQQKLDLFANEKLKAALKARDIVAGIASEEEDEIVVFEGCEHAKYVVLMDPLDGSSNIDVNVSVGTIFSIYRRVTPVGTPVTEEDFLQPGNKQVAAGYVVYGSSTMLVYTTGCGVHAFTYDPSLGVFCLCQERMRFPEKGKTYSINEGNYIKFPNGVKKYIKFCQEEDKSTNRPYTSRYIGSLVADFHRNLLKGGIYLYPSTASHPDGKLRLLYECNPMAFLAEQAGGKASDGKERILDIIPETLHQRRSFFVGNDHMVEDVERFIREFPDA [P0A993]”, the “total protein half-life in vivo” value by setting is: under setting [1], 4.22 ± 0.099 h; under setting [2], 3.02 ± 0.088 h; under setting [3], 3.76 ± 0.66 h; under setting [4], 3.84 ± 0.51 h; under setting [5], 3.21 ± 0.12 h; under setting [6], 2.93 ± 0.38 h. Also, the “total protein half-life in vivo” value under setting [7] was 5.02 ± 0.3 h; the “total protein half-life in vivo” value under setting [8] worked out at 8.6 ± 0.59 h; the “total protein half-life in vivo” value under setting [9] stood at 3.19 ± 0.06 h; the “total protein half-life in vivo” value under setting [10] was 4.68 ± 0.09 h; the “total protein half-life in vivo” value under setting [11] was 5.796 ± 0.011 h; the “total protein half-life in vivo” value under setting [12] came to 10.6 ± 0.24 h.

Take “MFRPFLNSLMLGSLFFPFIAIAGSTVQGGVIHFYGQIVEPACDVSTQSSPVEMNCPQNGSIPGKTYSSKALMSGNVKNAQIASVKVQYLDKQKKLAVMNIEYN”: the “total protein half-life in vivo” value under setting [6] was 0.288 h and the “total protein half-life in vivo” value under setting [7] was determined as 0.225 h.

Turning to “MFVEHNLIKNIKIFTLAFTLTVVLIQLSRFISPLAIIHSSYIFLAWMPLCVMLSILFIFGWRGVVPVLCGMFCTNLWNFHLSFLQTAVMLGSQTFVVLCACAILRWQLGTRWRYGLTSRYVWQRLFWLGLVTPIGIKCSMYLVGSFFDFPLKISTFFGDADAIFTVVDLLSLFTAVLIYNMLFYYLTRMIVSPHFAQILWRRDIAPSLGKEKRAFTLSWLAALSVLLLLLCTPYENDFIAGYLVPVFFIIFTLGVGKLRYPFLNLTWAVSTLCLLNYNQNFLQGVETEYSLAFILAVLISFSVCLLYMVRIYHRSEWLNRRWHLQALTDPLTLLPNFRALEQAPEQEAGKSFCCLRIDNLEFMSRHYGLMMRVHCIRSICRTLLPLMQENEKLYQLPGSELLLVLSGPETEGRLQHMVNILNSRQIHWNNTGLDMGYGAAWGRFDGNQETLQPLLGQLSWLAEQSCAHHHVLALDSREEMVSGQTTKQVLLLNTIRTALDQGDLLLYAQPIRNKEGEGYDEILARLKYDGGIMTPDKFLPLIAQFNLSARFDLQVLESLLKWLATHPCDKKGPRFSVNLMPLTLLQKNIAGRIIRLFKRYHISPQAVILEITEEQAFSNAESSMYNIEQLHKFGFRIAIDDFGTGYANYERLKRLQADIIKIDGVFVKDIVTNTLDAMIVRSITDLAKAKSLSVVAEFVETQQQQALLHKLGVQYLQGYLIGRPQPLAD”, the “total protein half-life in vivo” value amounted to 6.53 ± 0.1 h under setting [2]; 5.86 ± 0.58 h under setting [3]; 6.27 ± 0.65 h under setting [4]; 5.72 ± 0.47 h under setting [5]; 5.29 ± 1.1 h under setting [7]; 13.6 ± 0.27 h under setting [8]. In addition, the “total protein half-life in vivo” value is, setting by setting: under setting [9], 6.08 ± 0.22 h; under setting [10], 12.2 ± 1.5 h; under setting [11], 6.1 ± 0.44 h; under setting [12], 13.8 ± 0.87 h.
